# Reference: article PMC11601148, “Effects of proline substitution/inclusion on the nanostructure of a self-assembling β-sheet-forming peptide†” (RSC Advances, 2024)
# Assays:
# [1] = molecular target: the molecule itself; assay: ITC; NaOH (0.0025, 0.0125, 0.025 M) titrated into peptide at 0.1, 0.5 and 1 mg/mL in water, 25 °C; the energy change on deprotonation is read as a sign of self-assembly, no binding constant is fitted
# [2] = molecular target: the molecule itself; assay: SAXS + WAXS; peptide samples at 5 and 10 mg/mL in quartz capillaries, beamline I22 at Diamond Light Source, water as background
Protein,binding result [1],binding result [2]
"FEFKPEFKF (FP with one more phenylalanine at the C-terminal end; also called KEP; source: synthetic peptide, bought: Biomatik LLC (HCl salt, >90% purity))",binds,–
"FEFKFEFK (also called F8; source: synthetic peptide, bought: Biomatik LLC (HCl salt, >90% purity))",binds,–
"FEFEPKFKF (KPE with the polar residues shuffled: glutamic acids on one side of the proline, lysines on the other; source: synthetic peptide, bought: Biomatik LLC (HCl salt, >90% purity))",–,binds
